Measurements published in paper doi:10.1101/2021.05.23.445348.
pKd: −log10 of the molar value.

What was measured:
Assay in all cases: ITC
[1] = target: SARS-CoV-2 RBD K417N (SARS-CoV-2) (UniProt P0DTC2)
[2] = target: SARS-CoV-2 RBD T478I (SARS-CoV-2) (UniProt P0DTC2)
[3] = target: SARS-CoV-2 RBD Y453F (SARS-CoV-2) (UniProt P0DTC2)

CC12.1 single chain variable fragment (scFv)
pKd [1]: 6.92
pKd [2]: 8.24
pKd [3]: 6.08
